Test results as given in patent publication US20250361322A1 (ICONIC THERAPEUTICS, published 2025).

Key:
Test in all cases: cell-based or functional assay
Relipidated TF [1] = biological target: Relipidated TF
[2] = biological target: human Tissue Factor (hTF) (human, UniProt P13726 33-295)
Relipidated TF [3] = biological target: Relipidated TF (UniProt P13726 33-295, limits assumed)

B1: anti-TF antibody 1F (antibody, human IgG1, V domains shown)
VH: EVQLLESGGGLVQPGGSLRLSCAASGFTFSDYAMGWVRQAPGKGLEWVSTISGSGGLTYYADSVKGRFTISRDNSKNTLYLQMNSLRAEDTAVYYCAKAPYGYYMDVWGKGTTVTVSS
VL: not shown
Relipidated TF [1]
  % ETP, TGA with 10 min antibody pre-incubation, 10 nM antibody: 41%
  % Peak IIa, TGA with 10 min antibody pre-incubation, 10 nM antibody: 16%
  % Peak IIa, TGA with 10 min antibody pre-incubation, 50 nM antibody: 8%
  % Peak IIa, TGA with 10 min antibody pre-incubation, 100 nM antibody: 7%
  % ttPeak, TGA with 10 min antibody pre-incubation, 10 nM antibody: 220%
  % ttPeak, TGA with 10 min antibody pre-incubation, 50 nM antibody: 433%
  % ttPeak, TGA with 10 min antibody pre-incubation, 100 nM antibody: 483%
  ETP, TGA with 10 min antibody pre-incubation, 10 nM antibody: 742 nM·min
  Lag Time, TGA with 10 min antibody pre-incubation, 10 nM antibody: 13.8 min
  Lag Time, TGA with 10 min antibody pre-incubation, 50 nM antibody: 26.5 min
  Lag Time, TGA with 10 min antibody pre-incubation, 100 nM antibody: 29.5 min
  Peak IIa, TGA with 10 min antibody pre-incubation, 10 nM antibody: 44 nM
  Peak IIa, TGA with 10 min antibody pre-incubation, 50 nM antibody: 23 nM
  Peak IIa, TGA with 10 min antibody pre-incubation, 100 nM antibody: 20 nM
  ttPeak, TGA with 10 min antibody pre-incubation, 10 nM antibody: 22.4 min
  ttPeak, TGA with 10 min antibody pre-incubation, 50 nM antibody: 37.3 min
  ttPeak, TGA with 10 min antibody pre-incubation, 100 nM antibody: 40.8 min
[2]
  IC50, cell viability of A431 cells, Secondary ADC (antibody with anti-human Fc Fab:MMAF), Continuous (FIG. 18B): 0.07 nM

B2: anti-TF antibody 29E (antibody, human IgG1, V domains shown)
VH: QVQLVESGGGVVQPGRSLRLSCAASGFTFRSYGMHWVRQAPGKGLEWVAVITYDGINKYYADSVEGRFTISRDNSKNTLYLQMNSLRAEDTAVYYCARDGVYYGVYDYWGQGTLVTVSS
VL: not shown
Relipidated TF [1]
  % ETP, TGA with 10 min antibody pre-incubation, 10 nM antibody: 77%
  % ETP, TGA with 10 min antibody pre-incubation, 50 nM antibody: 72%
  % ETP, TGA with 10 min antibody pre-incubation, 100 nM antibody: 66%
  % Peak IIa, TGA with 10 min antibody pre-incubation, 10 nM antibody: 36%
  % Peak IIa, TGA with 10 min antibody pre-incubation, 50 nM antibody: 30%
  % Peak IIa, TGA with 10 min antibody pre-incubation, 100 nM antibody: 28%
  % ttPeak, TGA with 10 min antibody pre-incubation, 10 nM antibody: 159%
  % ttPeak, TGA with 10 min antibody pre-incubation, 50 nM antibody: 237%
  % ttPeak, TGA with 10 min antibody pre-incubation, 100 nM antibody: 247%
  ETP, TGA with 10 min antibody pre-incubation, 10 nM antibody: 1410 nM·min
  ETP, TGA with 10 min antibody pre-incubation, 50 nM antibody: 1300 nM·min
  ETP, TGA with 10 min antibody pre-incubation, 100 nM antibody: 1200 nM·min
  Lag Time, TGA with 10 min antibody pre-incubation, 10 nM antibody: 9.4 min
  Lag Time, TGA with 10 min antibody pre-incubation, 50 nM antibody: 14.1 min
  Lag Time, TGA with 10 min antibody pre-incubation, 100 nM antibody: 14.7 min
  Peak IIa, TGA with 10 min antibody pre-incubation, 10 nM antibody: 98 nM
  Peak IIa, TGA with 10 min antibody pre-incubation, 50 nM antibody: 83 nM
  Peak IIa, TGA with 10 min antibody pre-incubation, 100 nM antibody: 76 nM
  ttPeak, TGA with 10 min antibody pre-incubation, 10 nM antibody: 18.1 min
  ttPeak, TGA with 10 min antibody pre-incubation, 50 nM antibody: 23.6 min
  ttPeak, TGA with 10 min antibody pre-incubation, 100 nM antibody: 24.3 min
[2]
  IC50, cell viability of A431 cells, Secondary ADC (antibody with anti-human Fc Fab:MMAF), Continuous (FIG. 18B): 0.1 nM

B3: anti-TF antibody 39A (antibody, human IgG1, V domains shown)
VH: QVQLVQSGAEVKKPGSSVKVSCKASGGTFSSNAIGWVRQAPGQGLEWMGSIIPIIGFANYAQKFQGRVTITADESTSTAYMELSSLRSEDTAVYYCARDSGYYYGASSFGMDVWGQGTTVTVSS
VL: EIVMTQSPATLSVSPGERATLSCRASQSVSSNLAWYQQKPGQAPRLLIYGASTRATGIPARFSGSGSGTEFTLTISSLQSEDFAVYYCEQYNNLPLTFGGGTKVEIK
Relipidated TF [1]
  % ETP, TGA with 10 min antibody pre-incubation, 10 nM antibody: 0%
  % Peak IIa, TGA with 10 min antibody pre-incubation, 10 nM antibody: 13%
  % Peak IIa, TGA with 10 min antibody pre-incubation, 50 nM antibody: 8%
  % Peak IIa, TGA with 10 min antibody pre-incubation, 100 nM antibody: 7%
  % ttPeak, TGA with 10 min antibody pre-incubation, 10 nM antibody: 319%
  % ttPeak, TGA with 10 min antibody pre-incubation, 50 nM antibody: 491%
  % ttPeak, TGA with 10 min antibody pre-incubation, 100 nM antibody: 537%
  Lag Time, TGA with 10 min antibody pre-incubation, 10 nM antibody: 19.6 min
  Lag Time, TGA with 10 min antibody pre-incubation, 50 nM antibody: 30.7 min
  Lag Time, TGA with 10 min antibody pre-incubation, 100 nM antibody: 33.6 min
  Peak IIa, TGA with 10 min antibody pre-incubation, 10 nM antibody: 36 nM
  Peak IIa, TGA with 10 min antibody pre-incubation, 50 nM antibody: 22 nM
  Peak IIa, TGA with 10 min antibody pre-incubation, 100 nM antibody: 19 nM
  ttPeak, TGA with 10 min antibody pre-incubation, 10 nM antibody: 29.3 min
  ttPeak, TGA with 10 min antibody pre-incubation, 50 nM antibody: 41.4 min
  ttPeak, TGA with 10 min antibody pre-incubation, 100 nM antibody: 44.6 min
[2]
  IC50, cell viability of A431 cells, Secondary ADC (antibody with anti-human Fc Fab:MMAF), Continuous (FIG. 18B): 0.08 nM

B4: 5G9 (humanized TF8-5G9, CNTO 860) (antibody, V domains shown)
VH: QVQLVESGGGVVQPGRSLRLSCKASGFNIKDYYMHWVRQAPGKGLEWIGLIDPENGNTIYDPKFQGRFTISADNSKNTLFLQMDSLRPEDTAVYYCARDNSYYFDYWGQGTPVTVSS
VL: DIQMTQSPSSLSASVGDRVTITCKASQDIRKYLNWYQQKPGKAPKLLIYYATSLADGVPSRFSGSGSGTDYTFTISSLQPEDIATYYCLQHGESPYTFGQGTKLEIT
Relipidated TF [3]
  % ETP, Ab conc. 10 nM: 58%
  % Peak IIa, Ab conc. 10 nM: 24%
  % Peak IIa, Ab conc. 50 nM: 8%
  % Peak IIa, Ab conc. 100 nM: 8%
  % ttPeak, Ab conc. 10 nM: 135%
  % ttPeak, Ab conc. 50 nM: 338%
  % ttPeak, Ab conc. 100 nM: 401%

B5: 39A (antibody, IgG1, V domains shown)
VH: QVQLVQSGAEVKKPGSSVKVSCKASGGTFSSNAIGWVRQAPGQGLEWMGSIIPIIGFANYAQKFQGRVTITADESTSTAYMELSSLRSEDTAVYYCARDSGYYYGASSFGMDVWGQGTTVTVSS
VL: EIVMTQSPATLSVSPGERATLSCRASQSVSSNLAWYQQKPGQAPRLLIYGASTRATGIPARFSGSGSGTEFTLTISSLQSEDFAVYYCEQYNNLPLTFGGGTKVEIK
Relipidated TF [3]
  % ETP, Ab conc. 10 nM: 84%
  % Peak IIa, Ab conc. 10 nM: 37%
  % Peak IIa, Ab conc. 50 nM: 11%
  % Peak IIa, Ab conc. 100 nM: 9%
  % ttPeak, Ab conc. 10 nM: 135%
  % ttPeak, Ab conc. 50 nM: 397%
  % ttPeak, Ab conc. 100 nM: 465%

B6: 43B1 (antibody, IgG1, V domains shown)
VH: QVQLQESGPGLVKPSQTLSLTCTVSGGSISSGQYWSWIRQHPGKGLEWIGEIYYSGSTRYNPSLKSRVTISVDTSKNQFSLKLSSVTAADTAVYYCARDAPYYYGGGYYYYMDVWGKGTTVTVSS
VL: EIVLTQSPGTLSLSPGERATLSCRASESVDSSYLAWYQQKPGQAPRLLIYGASTRQTGIPDRFSGSGSGTDFTLTISRLEPEDFAVYYCQQAGVVPYTFGGGTKVEIK
Relipidated TF [3]
  % Peak IIa, Ab conc. 10 nM: 89%
  % Peak IIa, Ab conc. 50 nM: 72%
  % ttPeak, Ab conc. 10 nM: 9%
  % ttPeak, Ab conc. 50 nM: 29%
  % ttPeak, Ab conc. 100 nM: 37%

B7: anti-TF antibody 43B1 (antibody, human IgG1, V domains shown)
VH: QVQLQESGPGLVKPSQTLSLTCTVSGGSISSGQYWSWIRQHPGKGLEWIGEIYYSGSTRYNPSLKSRVTISVDTSKNQFSLKLSSVTAADTAVYYCARDAPYYYGGGYYYYMDVWGKGTTVTVSS
VL: EIVLTQSPGTLSLSPGERATLSCRASESVDSSYLAWYQQKPGQAPRLLIYGASTRQTGIPDRFSGSGSGTDFTLTISRLEPEDFAVYYCQQAGVVPYTFGGGTKVEIK
[2]
  IC50, cell viability of A431 cells, Secondary ADC (antibody with anti-human Fc Fab:MMAF), Continuous (FIG. 18B): 0.12 nM

B8: anti-TF antibody 43Ea (antibody, human IgG1, V domains shown)
VH: QVQLQESGPGLVKPSQTLSLTCTVSGGSISSGQYWSWIRQHPGKGLEWIGEIYYSGSTRYNPSLKSRVTISVDTSKNQFSLKLSSVTAADTAVYYCARDTPYYYDGGYYYYMDVWGKGTTVTVSS
VL: EIVLTQSPGTLSLSPGERATLSCRASQSVSSSYLAWYQQKPGQAPRLLIYGASSRATGIPDRFSGSGSGTDFTLTISRLEPEDFAVYYCQQVGVVPYTFGGGTKVEIK
[2]
  IC50, cell viability of A431 cells, Secondary ADC (antibody with anti-human Fc Fab:MMAF), Continuous (FIG. 18B): 0.13 nM
